{"source": "the nanobody polyreactivity screen of Harvey et al. (2022)"}
{"assay": "yeast display, Sf9 membrane polyspecificity reagent, FACS + sequencing; frameworks hold sequencing errors", "summary_of_the_method": "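Polyreactivity labels are assigned by the sorting gate from which each nanobody was recovered. The gates were low and high (top ~1%), set on anti-HA fluorescence for expression and streptavidin fluorescence for reagent binding. Before sorting, galactose-induced (36–48 hours) yeast display cells were stained for 1 hour at 4 °C with 10% biotinylated, detergent-solubilized Sf9 membrane reagent.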"}
{"sequence": "QVQLVEAGGGLVQAGGSLRLSCAASGYIGGNAMGWYRQAPGKERELVANISRSGGSTYYADSVKGRFTISRDNAKNTVYLQMNSLKPEDTAVYYCAAVSYGKYHWGMYYWGQGTQVTVSS", "polyreactivity (PSR sort gate)": "high polyreactivity"}
{"sequence": "QVQLVEAGGRLVQAGGSLRLSCAASGGTFGTNNMGWYRQAPGKEMEVVAAISKRGGRTYYADSVKGRFTISRDNAKNTVYLQMNSLKPEDTAVYYCAADTGGNPKYDYWGQGTQVTVSS", "polyreactivity (PSR sort gate)": "high polyreactivity"}
{"sequence": "QVQLVEAGGRLVQAGGSLRLSCAASGSIFYRNAMGGYRQKPGKEMELVAVITRRGGRKYYADSVKGRITISRDNAKNTVYLQMNSLIPEDTAVFYCAKRGWSDYNPIDYWGQGTPVTVSS", "polyreactivity (PSR sort gate)": "low polyreactivity"}
{"sequence": "QVQLVEPGGCLVQAGGSLRLSCAASGSIFAYNSMGSYRQAPGKERELVAAITISGGRTYYADSVKGRFTISRDNAKNTVYLNMNSLKPEDTAVYYCNADNARGRSGVRRYYWGQGTQVTVSS", "polyreactivity (PSR sort gate)": "high polyreactivity"}
{"sequence": "QVQLVESAAGLVQAGASHRLSCAPSGRIFVNYAMGGYRQAPGKERELVAAITSDGSTSYADSVKGRFTISRDNAKNTVYLQMNSLKPEDSADYYCAKDFFEHSPVSLTYSSSKYDYWGQGTQVTVSS", "polyreactivity (PSR sort gate)": "low polyreactivity"}
{"sequence": "QVQLVESAAGLVQAGGSLRLSCAASGFISPLYDMGGYRQAPGKERELVADITWRGGSTSYADSVKGRFTLSRDTAKKTGYLQMNSLKPEDTAVYYCAADARAFYYSNINGYWGQGTQVNVSS", "polyreactivity (PSR sort gate)": "high polyreactivity"}
{"sequence": "QVQLVESAAGLVQAGGSLRLSCAASGITFYRNAMGWYRQARGNEMELGAAITWNGGRTYYADSVKGRFTISRDNAKNTVYLQMNSLKPEDTALYYCAADSGTRNLASYRYYYWGQGTQVTVSS", "polyreactivity (PSR sort gate)": "high polyreactivity"}
{"sequence": "QVQLVESAAGLVQAGGSLRLSCAASGLNSSYYAMGWYRQAPGKERELVAAISRCGSTNYADSVKGRFTISRDNGKNTLYLQMNSLKPEDTAVYYCNADEYGGSTGRKGRYNYWGQGTQVTVSS", "polyreactivity (PSR sort gate)": "low polyreactivity"}
{"sequence": "QVQLVESAAGLVQAGGSLRLSCAASGRIFGSYVMGWYRQAPGKERELVAAISASGGSTYYADSVKGRFTISRDNAKNTVYLQMNSLKPEDTAVYYCAATSIYTWWDLLDYWGQGTQVTVSS", "polyreactivity (PSR sort gate)": "high polyreactivity"}
{"sequence": "QVQLVESAAGLVQAGGSLRLSCAASGRNFYYYAMGWYRQAPGKEREVVAAINWSGGGTYYADSVKGRFTISRDNAKNTVYLQMNSLKPEDTAVYYCAAGFRYRYYWGQGTQVTVSS", "polyreactivity (PSR sort gate)": "high polyreactivity"}
{"sequence": "QVQLVESAAGLVQAGGSLRLSCAASGSILKLNAMGWYRQAPGKERELVAAISRGGRTYYADSVKGRFTISRDNAKNTVYLQMHSLKPEDTAVYYCAADACLLGPGDFNYWGQGTQVTVSS", "polyreactivity (PSR sort gate)": "low polyreactivity"}
{"sequence": "QVQLVESAAGLVQAGGSLRLSCAASGSNFYGNAMGWYRQAPGKERELVAAIRWRGGRTYYADSVKGRFTISRDNAKNTVYLQMNSMKPEDTAVYYCNALPGVSHTQYDRVGYWGQGTQVTVSS", "polyreactivity (PSR sort gate)": "high polyreactivity"}
{"sequence": "QVQLVESAAGLVQAGGSLRLSCAPSGIIFGSYAMGWYRQEPGKESELVAAISRGTSTYYADSVKGRFTISRDNAKNTVYLQMNSLKPEDTAVYYCAATRQQYGPLSRFVYWYYYWGQGTQVTVSS", "polyreactivity (PSR sort gate)": "low polyreactivity"}
{"sequence": "QVQLVESAAGLVQAGGSLRLSCPASARILRYYAMGWYRQAPGKERELVAAISPRGGRTYYADSVKGRFTISRDNAKNTVYLQMNSLKPEDTAVYYCASPGYFTTPSGSYDYWGQGTQVTVSS", "polyreactivity (PSR sort gate)": "high polyreactivity"}
{"sequence": "QVQLVESAAGLVQAGGSLSLSCAASGSILQSYAMGWYRQAPGKERELVAAISGSGGSTYYADSVKGRFTISRDNAKNTVYLQMNSLKPEDTAVYYCAKGPRYRTSRGEFGYWGQGTQVTLSS", "polyreactivity (PSR sort gate)": "low polyreactivity"}
{"sequence": "QVQLVESAARLVQAGGSLRLSCAASGFTFKKYAMGWYRQAPGKARELVASITWSGGSTSYADSVKGRFTISRDTAKNTVYLLMNSLKPEDTAVYYCAAATFVYRLRYNRFDYWGQGTQETVSS", "polyreactivity (PSR sort gate)": "high polyreactivity"}
{"sequence": "QVQLVESAGALVQAGGSLRLSCAASGSTYWRYTMGWYRQAPGKERELVAAISTRGGSTTYADSVKGRFTISRDNAKNTVYLQMNSLKPEDTAVYYCAAGRQYRFDFWGQGTQVTVSS", "polyreactivity (PSR sort gate)": "high polyreactivity"}
{"sequence": "QVQLVESAGGLFQAGGSLRLSCAASGRIFGWNAMGWYIQATGKESELDAVITSGGITYYADSVKGRFTISPDNAKNTVCLQMISLKPEDTAVYYCAARGTEFYTYYRYYYWGQGTKVTVSS", "polyreactivity (PSR sort gate)": "high polyreactivity"}
{"sequence": "QVQLVESAGGLVQAGGRLRLSCPPSGSTFAYNAMGWYRPEPGKERELVADITSGGSTKYADSVKVRFTISRDNAKNTVFLQMNSLKPEDTAVYYCAAVSVISGDFNYWGQGTEVTVSS", "polyreactivity (PSR sort gate)": "low polyreactivity"}
{"sequence": "QVQLVESAGGLVQAGGRLSLSCAASGRTYKKYAMGWYRPEPGKERELVAAITGSGGSTYYADSVKGRFTISRDNAKNTVYLQMNSLKPEDTAVYYCAAYAYGVWDSQDGGNYWGLGTQVTVSS", "polyreactivity (PSR sort gate)": "low polyreactivity"}
{"sequence": "QVQLVESAGGLVQAGGSHRLSCAASVLIFRYYAMGWFRQAPGKEWELFAAISNSGGGTYYADSVKGRFTISRDNAKNTVYLLMNSLIPVDTAVYYCAARHAFCFRFVSWGLGTQVTVSS", "polyreactivity (PSR sort gate)": "high polyreactivity"}
{"sequence": "QVQLVESAGGLVQAGGSISLSCAASGIIFRYYAMGSYRQAPGKERELVAVITGRGGGTYYADSVKGRFTISRDNAKNTVYLQMNSLKPEDTAVYYCAKDFTGHYPKGFDYWGQGTQVTVSS", "polyreactivity (PSR sort gate)": "low polyreactivity"}
{"sequence": "QVQLVESAGGLVQAGGSLRISCAASGRNFSTNAMGWYRQAPGKEMELVAAITSRGGSTYYADSVKGRFTISRDNAKNTVYLQMNSLIPEDPAVYYCAVDPLYYKTHYGTLGYYYWGQGTQVTVSS", "polyreactivity (PSR sort gate)": "low polyreactivity"}
{"sequence": "QVQLVESAGGLVQAGGSLRITCAASGINFTFYTMGWYRQAPGKERELVAAITWSGGSTNYADSVKGRFTISRDNAKNTVYLQMNSLKPEDTAVYYCAAQGYPQSPPWEDYWGQGTQVTVSS", "polyreactivity (PSR sort gate)": "low polyreactivity"}
{"sequence": "QVQLVESAGGLVQAGGSLRLICAASGRTTPIYALGWYRQAPGKERELVASITRGTRTNYADSVKGRFTISRDNAKTTVYLQMNSLKPEDTAVYYCAAVSYSYSLNPYDYWGQGTQVTVSS", "polyreactivity (PSR sort gate)": "low polyreactivity"}
{"sequence": "QVQLVESAGGLVQAGGSLRLICAASGSNFRRYAMGWYRQAPGKERELVAAITENTTSTNYADSVKGRFTISRDNAKNTVYLQMNSLKPEDTAVYYCAAETFATSGEMYYWGQGTQVTVSS", "polyreactivity (PSR sort gate)": "low polyreactivity"}
{"sequence": "QVQLVESAGGLVQAGGSLRLICADSGSIFSNDAMGWYTQAPGKERELVAAITNGVSTNYADSVKGRFTISRDNAKNTVYLPMNSLIPEDTAVYYCAAVSRSYYNSYNYWGQGTQVTVSS", "polyreactivity (PSR sort gate)": "high polyreactivity"}
{"sequence": "QVQLVESAGGLVQAGGSLRLSCAASGFIINKYTMGWYRQAPGKERELVAAITWSGGTTYYADSVKGRFTISRDNAKNTVYLQMNSLKPEDTAVYYCAAYYYRGRVGAYDYWGQGTQVTVSS", "polyreactivity (PSR sort gate)": "high polyreactivity"}
{"sequence": "QVQLVESAGGLVQAGGSLRLSCAASGFTFGKNSMGWYRQAPGKERELVAAISGSGSRTYYADSVKGRFTISRDNAKNTVYLQMNSLKPEDTAVYYCAAAVTGSYASDYWGQGTQVTVSS", "polyreactivity (PSR sort gate)": "high polyreactivity"}
{"sequence": "QVQLVESAGGLVQAGGSLRLSCAASGGIFDRYAMGWYRQAPGKERELVAAITSGGSTNYADSVKGRFTISRDNAKNTVYLQMNSLKPEDTAVYYCNADLGILSGVDEGPTFREYDYWGQGTQVTLSS", "polyreactivity (PSR sort gate)": "low polyreactivity"}
{"sequence": "QVQLVESAGGLVQAGGSLRLSCAASGGTFSTYAIGWYRQAPGKEREFVAAITRSGTSTYYADSVKGRFTISRDNAKNTVYLQMNSLKPEDTAVYYCAAGVYSFRYDYWGQGTQVTVSS", "polyreactivity (PSR sort gate)": "low polyreactivity"}
{"sequence": "QVQLVESAGGLVQAGGSLRLSCAASGITFWYYTMGWYRQAPGKERELVAAINGRGGSTYYADSVKGRFTISRDNAKNTVYLQMNSLKPEDTAVYYCNAVGIWFQIRLIVPYDYWGQGTQVTVSS", "polyreactivity (PSR sort gate)": "low polyreactivity"}
{"sequence": "QVQLVESAGGLVQAGGSLRLSCAASGITIVRYARGWSRQAPGKERELVAAINRSGGSTYDADSVKGRFTISRDNAKNTVYLQMNSLKPEDTAVYYCAARLYGKYDPPGYYYWGQGTQVTVSS", "polyreactivity (PSR sort gate)": "high polyreactivity"}
{"sequence": "QVQLVESAGGLVQAGGSLRLSCAASGLIFYSYAMGWYRQAPGKERELVASITTRGSSTYYADSVKGRFTISRDNAKNTVYLQMNSLKPEDTAVYYCAADRLYYRYPPDTGYGYWGQGTQVTVSS", "polyreactivity (PSR sort gate)": "low polyreactivity"}
{"sequence": "QVQLVESAGGLVQAGGSLRLSCAASGNMLIGKVMGMYRQAPGKERELVAAITSGGDTYYADSVKGRYTISRDNAKNTVYLQMNSLKPEDTAVYYCAADRPGQPKYEYWGQCTQVTVSS", "polyreactivity (PSR sort gate)": "low polyreactivity"}
{"sequence": "QVQLVESAGGLVQAGGSLRLSCAASGPTFAYNDMGWSRQAPGKERELVAAISWSDGTTYYADSVKGRFTISRDNAKNTVYLQMNSLKPEVTAVYYCAGESYPSEVASYVSEYDYWGQGTQVTVSS", "polyreactivity (PSR sort gate)": "low polyreactivity"}
{"sequence": "QVQLVESAGGLVQAGGSLRLSCAASGRIFRYYAMGWYRQAPGKERELFAAISRSGASTYYADSVKGRFTISRDNAKNTVYLQMNSLIPEDTAVYYCAAGYWPGYSQTYRGGYWGQCTQVTVSS", "polyreactivity (PSR sort gate)": "high polyreactivity"}
{"sequence": "QVQLVESAGGLVQAGGSLRLSCAASGRIFRYYVMGWYRQAPGKEREFVASISGRGASTYYADSVKGRFTISRDNAKNTVYLQMNSLKPEDTAVYYCNADVWLLSYFPEYDYWGQGTQVTVSS", "polyreactivity (PSR sort gate)": "low polyreactivity"}
{"sequence": "QVQLVESAGGLVQAGGSLRLSCAASGRIFSYKAMGWYRQAPGKQRELVAAISYSGGRTYYADSVKGRFTISRDNAKNTVYLQMYSLKPEDTAVYYCAAEAHLAGFYRYYGGYGYDYWGQGTQVTVSS", "polyreactivity (PSR sort gate)": "high polyreactivity"}
{"sequence": "QVQLVESAGGLVQAGGSLRLSCAASGRIFYYNAMGWYRQAPGKERELVAGITSRGGSTYADSVKGRFTISRDNAKNTVYLQMNSLKPEDTAVYYCAAVYRLWGKDYDYWGQGTQVTVSS", "polyreactivity (PSR sort gate)": "high polyreactivity"}
{"sequence": "QVQLVESAGGLVQAGGSLRLSCAASGRILVRNAMGWYRQAPGTERELVAAIRRGTSTNYADSVKGRFTISRDNAKNTVYLQMNSLKPEDTAVYYCAVRAASPYLDGAWRRRYDYWGQGTQVTVSS", "polyreactivity (PSR sort gate)": "low polyreactivity"}
{"sequence": "QVQLVESAGGLVQAGGSLRLSCAASGRTFAYNAMGWYRQAPGKERELVADITSGGSTYYADSVKWRFTISRDNAKNTVYLQMNSLKPEDTAVYYCNKLYRGGYGYWGQGTQVTVSS", "polyreactivity (PSR sort gate)": "high polyreactivity"}
{"sequence": "QVQLVESAGGLVQAGGSLRLSCAASGRTFGKYAMGWYRQAPGKERELVAAITGGGGTKYADSVKGRFTISRDNAKNTVYLQKNSLKPEDTAVYYCAAASGSRRHGYWGQGTQVTVSS", "polyreactivity (PSR sort gate)": "high polyreactivity"}
